Laboratory results from the supplement of paper PMC10567573.
± gives the standard deviation.

Test: protein stability index of a GFP-peptide fusion (GPS, HEK-293T) (PSI 1-6); higher = more stable
[1] = treatment: DMSO, c terminus: a fixed tail appended
[2] = treatment: MLN4924 1 uM, 8 h, c terminus: a fixed tail appended
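Also: 24-mer peptide tiles fused after GFP, lentivirally expressed, FACS-sorted into six equal bins by GFP/DsRed ratio, decoded by Illumina sequencing, PSI is the read-weighted mean bin number.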

Sequence	protein stability index [1]	protein stability index [2]	protein stability index (treatment: DMSO, c terminus: native)	protein stability index (treatment: MLN4924 1 uM, 8 h, c terminus: native)
EILNFNQYYEACRKAAKSLIKLGL [ACSBG2]	1.91 ± 0.39	2.92 ± 1.3	–	–
EKASWLGEQPQFWSKTQVLDWISY [ELF3]	2.33 ± 0.3	2.16 ± 0.096	–	–
EKDLVGLAQIAEVLEMFDLRMMVE [RHOBTB1]	2.46 ± 0.21	2.22 ± 0.38	–	–
EKEELLQLSIERGKVLQNKQAEIC [CCDC89]	4.44 ± 0.27	4.68 ± 0.17	–	–
EKEIPVLNELPVPMVARYIRINPQ [CPXM2]	3.16 ± 0.26	3.25 ± 0.18	–	–
ELCVKLMFLHPVDYGRKAEELLWR [SMG5]	2.41 ± 0.7	2.33 ± 0.89	–	–
ELHRRLDEEQQVLLSRLEEEEQDI [TRIM39]	5.426 ± 0.033	5.49 ± 0.17	–	–
ELIKWRAAIVVNGHGMTPLKVAAE [FEM1B]	2.64 ± 0.55	2.15 ± 0.33	–	–
ELQEKQKNEKLISLQEQLQRFLKK [TAF7L]	3.36 ± 0.33	3.39 ± 0.15	–	–
ELQIELLRETKRKYESVLQLGRAL [ARFIP2]	2.54 ± 0.12	2.55 ± 0.23	–	–
ELVVIIGWAKHIPGFSTLSLADQM [ESRRG]	3.19 ± 0.31	2.67 ± 0.77	–	–
EMKEFSSQLAGQVNVEMDAAPGVD [KRT15]	5.29 ± 0.24	5.07 ± 0.11	–	–
ENDPEWWKCKNARGQVGLVPKNYV [NCK2]	3.52 ± 0.16	3.54 ± 0.12	–	–
ENKENEAFEFKKPVRPVSRGCLHS [CDC25A]	3.87 ± 0.7	3.73 ± 0.52	–	–
ENPVGTFHCSMSPGNLEKNRYGDV [PTPN9]	3.44 ± 0.35	3.4 ± 0.38	–	–
EPLAEGAAAEFSSLLRRIKGKLFT [SLC35F2]	2.55 ± 0.33	2.65 ± 0.096	–	–
EQIKTRTEELIVQTKQVYDAVGML [NLN]	3.68 ± 0.25	3.88 ± 0.41	–	–
EQKNHTFPRLNRNKYMVTDGAAYI [PLD5]	2.85 ± 0.078	3.19 ± 0.24	–	–
ERDRDPCGGSGGGGGGGGGGGGCS [LURAP1L]	5.37 ± 0.35	5.4 ± 0.24	–	–
ERFSSAPCLLGSRVFSQGSHAWEV [TRIM35]	2.51 ± 0.36	2.46 ± 0.2	–	–
ESDSRKVAEETPDGAPALCPSPEA [PRKX]	5.69 ± 0.17	5.58 ± 0.3	–	–
ESGKEEGMKIDLIDGKGRGVIATK [KMT5A]	5.12 ± 0.41	5.39 ± 0.39	–	–

Sequence	protein stability index [1]	protein stability index [2]	protein stability index (treatment: DMSO, c terminus: native)	protein stability index (treatment: MLN4924 1 uM, 8 h, c terminus: native)
ESSNDFGPYEGGGPVAGLDDSGGP [ZBTB22]	5.03 ± 0.42	5 ± 0.13	–	–
ESSPSHDRSRTVSASSTGDLPKAK [SRPK2]	5.16 ± 0.33	5.22 ± 0.16	–	–
ETFSTLKNWVKELRQHGPPNIVVA [RAB22A]	2.4 ± 0.69	2.36 ± 0.14	–	–
ETNLLLAQKQRLERALDATEVPFS [TEKT4]	4.1 ± 0.29	4.21 ± 0.25	–	–
ETPMAPVPLGPLGETYCEEHGEKI [TRIM15]	5.39 ± 0.2	5.38 ± 0.12	–	–
ETYIHLLAMKIKVGSDDLERIEAR [PSD2]	2.26 ± 0.13	2.5 ± 0.44	–	–
EVKGTLEGDVCGVEPPGPGDTVVQ [PBXIP1]	5.48 ± 0.23	5.37 ± 0.11	–	–
EVKSSIAGSSTWERYFIPVSCFLT [SLC29A1]	2.44 ± 0.37	2.34 ± 0.36	–	–
EVYYAKKKRRAQQAPPQDSSNKKE [DYRK1B]	4.45 ± 0.28	4.77 ± 0.24	–	–
EYIVKKLSRQEFLGMVGLFGTIIS [SLC35F2]	2.43 ± 0.26	2.44 ± 0.27	–	–
EYQLYEDIGKGAFSVVRRCVKLCT [CAMK2B]	2.45 ± 0.26	2.25 ± 0.36	–	–
FACPSQALFFKNIMNIIDIVSILP [KCNA4]	3.02 ± 0.073	2.85 ± 0.27	–	–
FDIQKIMQEKNPVHVIGVEEPSVG [ZNF8]	4.07 ± 0.39	4 ± 0.4	–	–
FDIRILMAKSVKYTVNFLEAKEGD [CARM1]	2.27 ± 0.28	2.33 ± 0.33	–	–
FDPLRNEYFFDRNRPSFDAILYYY [KCNA1]	2.68 ± 0.45	2.73 ± 0.48	–	–
FEGDMGAAGGDGELGSPLRRSISS [PSD2]	4.81 ± 0.2	4.94 ± 0.13	–	–
FENPADAKNAAKDMNGKSLHGKAI [RBMY1A1]	4.92 ± 0.14	5 ± 0.23	–	–
FFGVFQSFVVLLYILDNETNFVVQ [CLPTM1]	3.19 ± 0.33	2.86 ± 0.42	–	–
FFLRGRLDQLLRHVMNPLETLSIT [PRAME]	–	2.1 ± 0.52	–	–
FFSKRFKSAAMLAVFAVSAVVHEY [SOAT1]	2.35 ± 0.9	3.06 ± 0.41	–	–
FHYIIEQGVCYLVLCEAAFPKKLA [SEC22B]	3.01 ± 0.71	2.68 ± 0.63	–	–
FIAGLCVFIISTLAIDFIDEGRLL [SOAT2]	2.81 ± 0.6	3.01 ± 0.33	–	–

Sequence	protein stability index [1]	protein stability index [2]	protein stability index (treatment: DMSO, c terminus: native)	protein stability index (treatment: MLN4924 1 uM, 8 h, c terminus: native)
FIRCSLQCRDLVDEAKKFHLRPEL [KLHL12]	2.67 ± 0.8	2.82 ± 1.4	–	–
FKLDKKYQRPQDSEDMWGDEDFTF [FBF1]	4.12 ± 0.18	4.14 ± 0.23	–	–
FKMLDPDGKGKINKEYIKRLLMSQ [MYL5]	2.41 ± 0.28	2.63 ± 0.3	–	–
FLDNGYGHCLLDKPEAPLHLPVTF [ADAMTS4]	2.07 ± 0.37	2.16 ± 0.14	–	–
FLQRCLESPFSRKLDLWSFLDIPR [NET1]	2.45 ± 0.47	2.1 ± 0.18	–	–
FLTLEKFTIHNYSHSRERPYKCVQ [PLAGL1]	2.68 ± 0.26	2.13 ± 0.24	–	–
FLVFVIVLFFIYHFMQAEEGNPF [EMD]	–	–	2.94 ± 0.44	2.83 ± 0.17
FMPQGAGGHTREARIQTLEPDNWM [RSAD1]	3.27 ± 0.33	3.11 ± 0.29	–	–
FNFVSTPKCSCGQLAAVHLSKSRT [RNF180]	2.14 ± 0.43	2.05 ± 0.26	–	–
FNLFCQKRFDESMQVFAKLGTDPT [VPS39]	2.68 ± 0.36	2.68 ± 0.11	–	–
FPDVPLGIFLFCVCVIAIGVVQAL [TMEM175]	2.63 ± 0.62	2.28 ± 1.2	–	–
FPRMLLVDRLPGLQGALDLLAVLC [ZSWIM9]	2.29 ± 0.18	2.25 ± 0.084	–	–
FQELAGKELCAMSEEQFRQRSPLG [SPDEF]	3.1 ± 0.42	3.59 ± 0.33	–	–
FQRAMHDYNQAEMKQRDNCKIRIQ [STX11]	3.08 ± 0.33	3.44 ± 0.37	–	–
FRCSVCSRQLLPGDEFSLREHELL [ISL2]	2.39 ± 0.4	2.24 ± 0.59	–	–
FRHDRLRFRDFVDALEDSLEEVAV [PBXIP1]	3.04 ± 0.47	3.48 ± 0.3	–	–
FRIILGDFDYNAIDNANRILGPAY [PKD2L1]	2.74 ± 0.55	2.62 ± 0.55	–	–
FSGQIRLNEDTIQDVVQAADLLLL [GAN]	2.27 ± 0.24	2.3 ± 0.43	–	–
FSLFGDISVLQQQGSLSNTYLSKV [FBXO33]	2.12 ± 0.38	2.13 ± 0.096	–	–
FSPDFTLRNTLKSTSEDSLVKQEC [FAN1]	2.67 ± 0.58	3.43 ± 0.85	–	–
FSQLEDKFPGQSSFLWQRGRKFLQ [TOR1AIP2]	2.69 ± 0.22	2.75 ± 0.34	–	–
